The chains are these.
B1: Hairpin Ribozyme (parent)
chain: GUCCUCUUUCACGUGCGCGUGAAAGAGAGAAGUGAACCAGAGAAACACACGUUGUGGUAUAUUACCUGGUA

The variants in this data set derive from B1. As to the kind of experiment: self-cleavage, relative activity (ratio to wild type); higher = more cleavage; co-transcriptional.
Turning to C18A A64C, the self-cleavage was determined as 0.19.
On to C16G A30U, for which the self-cleavage was determined as 0.0915.
Consider C16U G17C, for which the self-cleavage is 0.985.
The same measure for C16U G17U: 0.92; for G17U U53C: 0.828.
On to G17U U55C, for which the self-cleavage is 0.301.
Regarding C18A A71G, the self-cleavage came to 1.14.
The same measure for G17U: 0.961.
As for G17A, the self-cleavage was determined as 1.01.
Regarding G17C, the self-cleavage is 0.751.
In the case of C16G A35U, the self-cleavage turned out to be 0.693.
With C16G A35C the figure was 0.659; with C16G A59U, 0.145; with C16G A31C, 0.0855.
As for C16G A31U, the self-cleavage turned out to be 0.226.
The same measure for G17C G68U: 0.181.
For G17A C37G, the self-cleavage is 0.332.
The same measure for C18A A23C: 0.863; for C18A A23U: 0.923; for G17C C37G: 0.362.
C16U A36U: the self-cleavage is 0.804.
As to C16U A36C, the self-cleavage came to 0.789.
The same measure for C18A U20G: 0.946.
In the case of C18A U20A, the self-cleavage was found to be 0.917.
Consider C16U G21A, for which the self-cleavage was 0.843.
With G17U C50G the figure was 0.192; with C16U A39G, 0.326.
In the case of C16G G32C, the self-cleavage came to 0.091.
On to C16U C66A, for which the self-cleavage is 0.194.
Regarding C18A U55C, the self-cleavage is 0.3.
As for G17C U67A, the self-cleavage worked out at 0.227.
With C16G A49G the figure was 0.544; with C16U A22C, 0.899.
With C16G A36U the figure was 0.553.
In the case of G17C U20C, the self-cleavage came to 0.585.
With C16U C48A the figure was 0.114.
With C16U A43C the figure was 0.174; with C18A G69A, 0.455.
With G17U A61C the figure was 0.161; with G17U A61U, 0.158.
As to G17A U60A, the self-cleavage came to 1.02.
Take G17C C48G: the self-cleavage was 0.165.
Regarding C18A A49U, the self-cleavage amounted to 0.264.
With C18A A49G the figure was 0.54.
The same measure for C18A G32A: 0.169; for C18A U33G: 0.15.
Consider C18A U33C, for which the self-cleavage was found to be 0.132.
In the case of C18A U33A, the self-cleavage was 0.115.
For the variant G17U U33G, the self-cleavage worked out at 0.186.
G17U U33C: the self-cleavage was found to be 0.0633.
As for G17A A39C, the self-cleavage stood at 0.51.
Turning to C16G G69C, the self-cleavage came to 0.197.
Take C16U U67C: the self-cleavage was determined as 0.283.
For C16U U67G, the self-cleavage stood at 0.367.
The same measure for G17C G34U: 1.42; for G17C G34A: 1.02; for G17C G34C: 1.16.
Regarding C16G U58A, the self-cleavage was found to be 0.488.
G17U A64G: the self-cleavage was 0.624.
The same measure for G17U C38U: 0.519.
As for G17C A59C, the self-cleavage turned out to be 0.162.
Turning to G17C A59G, the self-cleavage was found to be 0.171.
Consider C18A G25A, for which the self-cleavage came out at 0.681.
As for C18A C46U, the self-cleavage stood at 0.1.
The same measure for C18A C46A: 0.231; for G17U G21U: 0.53.
C16U U60A: the self-cleavage amounted to 1.01.
In the case of G17A U62A, the self-cleavage amounted to 0.159.
The same measure for C18A G54C: 0.395; for C16U U52A: 1.01.
With C16U U52C the figure was 0.7; with G17U G68U, 0.207.
Turning to G17U G68C, the self-cleavage amounted to 0.162.
Turning to G17C C66A, the self-cleavage worked out at 0.154.
Take G17C C66G: the self-cleavage turned out to be 0.0719.
For C18A A22G, the self-cleavage worked out at 0.857.
In the case of C18A G68U, the self-cleavage worked out at 0.239.
In the case of C16U A30U, the self-cleavage came to 0.2.
For the variant G17A G42C, the self-cleavage worked out at 0.367.
On to G17C A71U, for which the self-cleavage came out at 0.639.
The same measure for C16G G40A: 0.198.
For the variant G17A A28G, the self-cleavage worked out at 1.14.
G17U G34A: the self-cleavage was found to be 1.24.
Consider G17A G57C, for which the self-cleavage is 0.146.
For the variant C16G A64U, the self-cleavage was 0.172.
As to C16G A64C, the self-cleavage worked out at 0.161.
C16G A64G: the self-cleavage was found to be 0.511.
Consider C18A C38A, for which the self-cleavage came to 0.132.
As for G17U A23U, the self-cleavage amounted to 0.811.
With G17U G25U, the self-cleavage turned out to be 0.637.
Regarding C18A U70C, the self-cleavage was 0.952.
The same measure for G17C A61U: 0.198; for C16U A41C: 1.4.
Consider C16U A41G, for which the self-cleavage was 0.809.
Regarding C18G A22G, the self-cleavage is 0.804.
Consider C18G A22C, for which the self-cleavage is 0.79.
With C16G G54U the figure was 0.493.
Turning to C16G G54A, the self-cleavage came to 0.485.
As for C16U U70A, the self-cleavage was 1.03.
With C16U U70C, the self-cleavage worked out at 0.949.
Consider G17C U33G, for which the self-cleavage came out at 0.121.
With G17C U33C, the self-cleavage came to 0.237.
As for G17C U33A, the self-cleavage stood at 0.149.
Take G17A C50G: the self-cleavage worked out at 0.327.
With C16U A64C, the self-cleavage is 0.133.
With C16U A24G the figure was 0.997; with C16U A24U, 1.02; with G17A U55A, 0.0892.
With G17A U55C, the self-cleavage stood at 0.354.
In the case of C16U A61G, the self-cleavage was 0.148.
With G17U U63C the figure was 0.164; with G17U U63G, 0.0762; with G17U G40U, 0.181.
Consider G17C U70C, for which the self-cleavage turned out to be 0.866.
With G17C U70A, the self-cleavage amounted to 0.862.
The same measure for G17C U70G: 0.807.
Regarding C16U U62A, the self-cleavage is 0.18.
Consider C18A G34A, for which the self-cleavage worked out at 1.33.
For G17A U33C, the self-cleavage is 0.113.
For C18A A41C, the self-cleavage came out at 1.21.
Consider C16U C46A, for which the self-cleavage is 0.177.
With C16U C46G, the self-cleavage was 0.141.
On to G17C G29U, for which the self-cleavage worked out at 0.134.
With G17U G42A the figure was 0.152; with G17U G42U, 0.343; with G17U A71G, 1.1.
In the case of C18A A45U, the self-cleavage amounted to 0.11.
The same measure for G17U U60A: 0.738.
G17A A49U: the self-cleavage is 0.141.
G17C A49G: the self-cleavage came out at 0.409.
For G17C G54C, the self-cleavage came out at 0.387.
G17C G54A: the self-cleavage was 0.36.
With G17U G54C, the self-cleavage turned out to be 0.413.
For the variant C18A G19A, the self-cleavage came out at 0.886.
Take G17C U63A: the self-cleavage came out at 0.193.
For the variant G17C A30C, the self-cleavage came to 0.099.
For G17A U67C, the self-cleavage stood at 0.163.
As to G17U A24G, the self-cleavage came to 0.766.
Consider G17U G69U, for which the self-cleavage was 0.258.
Consider C16G U53G, for which the self-cleavage was 0.713.
As to G17A A24C, the self-cleavage amounted to 0.894.
As for G17A A24U, the self-cleavage amounted to 1.03.
Regarding C16U A71U, the self-cleavage was 0.859.
Take G17A G40A: the self-cleavage turned out to be 0.185.
Turning to C16G A23U, the self-cleavage came out at 0.718.
With G17A G56A the figure was 0.142.
On to G17A G56C, for which the self-cleavage came out at 0.185.
For G17A G56U, the self-cleavage turned out to be 0.137.
On to G17U G32U, for which the self-cleavage amounted to 0.121.
With G17U G32C, the self-cleavage amounted to 0.137.
Turning to G17A G32A, the self-cleavage came to 0.105.
As to G17A U63G, the self-cleavage worked out at 0.29.
The same measure for G17A U63C: 0.181; for C16G G42U: 0.247; for C16G G42A: 0.251.
C16U G54A: the self-cleavage came out at 0.518.
As to C18A A43G, the self-cleavage was determined as 0.085.
Consider C16G C65G, for which the self-cleavage is 0.163.
With C16U G32A the figure was 0.216; with G17A A35U, 0.778; with G17U C66A, 0.233.
With G17U C66U the figure was 0.537; with C16G C38U, 0.167; with C18A C37U, 0.64.
As to C18A A30C, the self-cleavage was 0.166.
For G17U A47G, the self-cleavage is 0.15.
C18A G51A: the self-cleavage was found to be 1.01.

(Values after the RNAGym collection of RNA variant scans (doi:10.7554/elife.80360).)
